Measured values taken from patent US20050026822A1 (HOWARD FLOREY INSTITUTE OF EXPERIMENTAL PHYSIOLOGY AND …, published 2005).
Bridge positions count the residues as written; N and C are the ends. Ends that are not written are not given here. I, II: the chains in the order shown.

Legend:
[1] = biological target: T1, Human relaxin receptor on THP-1 cells (human, UniProt Q9HBX9 1-757); experiment: cell-based or functional assay
T1 sequence (looked up): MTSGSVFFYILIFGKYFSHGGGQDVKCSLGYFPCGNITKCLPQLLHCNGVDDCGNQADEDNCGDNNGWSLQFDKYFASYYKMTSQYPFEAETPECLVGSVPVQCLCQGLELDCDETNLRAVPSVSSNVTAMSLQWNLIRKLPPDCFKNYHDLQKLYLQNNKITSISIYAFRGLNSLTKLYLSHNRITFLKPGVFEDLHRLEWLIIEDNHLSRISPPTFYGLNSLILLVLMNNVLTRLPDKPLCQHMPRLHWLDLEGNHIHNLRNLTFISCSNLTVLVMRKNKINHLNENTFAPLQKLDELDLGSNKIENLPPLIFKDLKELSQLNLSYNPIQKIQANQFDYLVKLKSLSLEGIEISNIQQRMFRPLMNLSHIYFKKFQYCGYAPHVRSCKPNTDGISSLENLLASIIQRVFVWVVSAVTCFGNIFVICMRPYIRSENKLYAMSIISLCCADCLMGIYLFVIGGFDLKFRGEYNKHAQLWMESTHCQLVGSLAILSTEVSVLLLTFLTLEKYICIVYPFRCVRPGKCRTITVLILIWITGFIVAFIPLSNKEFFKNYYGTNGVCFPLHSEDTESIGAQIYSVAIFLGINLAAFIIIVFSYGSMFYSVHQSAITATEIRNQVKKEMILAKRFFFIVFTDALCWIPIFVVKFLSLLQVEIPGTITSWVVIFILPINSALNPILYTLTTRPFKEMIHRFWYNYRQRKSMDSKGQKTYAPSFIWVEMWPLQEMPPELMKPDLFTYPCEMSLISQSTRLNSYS

[2] = biological target: T1, Human relaxin receptor on THP-1 cells; experiment: competition with 33P-labeled H2 (B33) relaxin (100 pM) for binding to THP-1 cells
Description: THP-1 Cell Binding Assay—THP-1 cells were spun down and resuspended in binding buffer (20 mM HEPES, 50 mM NaCl, 1.5 mM CaCl₂, 1% BSA, 0.1 mg/ml lysine, 0.01% […], pH 7.5) (Parsell et al (1996) J. Biol. Chem. 271, 27936-27941) to give 2×10⁶ cells/well in a 96-well plate. The cells were incubated in binding buffer with ³³P-labeled H2 (B33) relaxin (100 pM: labeled as previously described (Tan et al (1999) Br. J. Pharmacol. 127, 91-98) at 25° C. for 90 min in the absence or presence of increasing concentrations of unlabeled H1, H2 and H3 relaxin (100 pM to 30 nM). Non-specific binding was defined with H2 relaxin (1 μM. Cells were harvested using a Packard 96-well plate cell harvester and Whatman GF/C glass fibre filters treated with 0.5% polyethylenimine. The filters were washed three times with modified binding buffer (20 mM HEPES, 50 mM NaCl, 1.5 mM CaCl₂), dried in a 37° C. oven, and the radioactivity counted by liquid scintillation spectrometry (TopCount™, Canberra Packard, Australia).

B1: Synthetic human H1 relaxin (ligand)
chain 1: RPYVALFEKCCLIGCTKRSLAKYC
chain 2: KWKDDVIKLCGRELVRAQIAICGMSTWS
notes: mature; Synthesized previously (Wade et al 1996); also called human 1 relaxin
With B1 the “cAMP production in THP-1 cells, EC50” value [1] was 0.794 nM, the “cAMP production in THP-1 cells, pEC50” value [1] was 9.1 and the pKi [2] was 8.9.

B2: Synthetic human H3 relaxin [hRlx-3 A(1-24) amide-B(1-27) amide] (ligand)
chain 1: DVLAGLSSSCCKWGCSKSEISSLC-NH2
chain 2: RAAPYGVRLCGREFIRAVIFTCGGSRW-NH2
modifications: disulfide I:10-I:15, I:11-II:10, I:24-II:22
notes: Made by solid phase synthesis; also called human 3 relaxin; synthetic H3 relaxin C-terminal amide derivative
For B2, the “cAMP production in THP-1 cells, EC50” value [1] was 2.11 nM, the “cAMP production in THP-1 cells, pEC50” value [1] was 8.68 and the pKi [2] was 7.5.

B3: Recombinant human H2 relaxin (ligand)
chain 1: QLYSALANKCCHVGCTKRSLARFC
chain 2: DSWMEEVIKLCGRELVRAQIAICGMSTWS
modifications: not fully specified (bridges); ends and bridges not checked
notes: mature; Gift from Connetics Corporation; also called human 2 relaxin
For B3, the “cAMP production in THP-1 cells, EC50” value [1] was 0.214 nM, the “cAMP production in THP-1 cells, pEC50” value [1] was 9.67 and the pKi [2] was 8.74.
